From the Human Domainome abundance scans (Beltran et al. 2025) come the findings set out here.

B1: RUN and FYVE domain-containing protein 1, residues 639 to 698; numbered along this chain, Q96T51 (parent)
chain: WLKDDEATHCRQCEKEFSISRRKHHCRNCGHIFCNTCSSNELALPSYPKPVRVCDSCHTL
B2: POU domain, class 3, transcription factor 2, residues 262 to 338; numbered along this chain, P20265 (parent)
chain: EDTPTSDDLEQFAKQFKQRRIKLGFTQADVGLALGTLYGNVFSQTTICRFEALQLSFKNMCKLKPLLNKWLEEADSS

± gives the uncertainty stated by the source.

The first data set covers variants of B1. In words: abundance fitness (aPCA) (normalised: wild type 0, dead -1); higher = more abundant; growth selection in yeast, the domain comes from the species named. Conditions: Homo sapiens.
As for L60T, the abundance fitness is -0.087 ± 0.066. Same read-out and setting: under L60Q stands 0.101 ± 0.086; under L60I, 0.094 ± 0.19; under L60F, -0.163 ± 0.07. On the same count and under the same terms, the same measure for L60W: -0.366 ± 0.064; for L60S: -0.067 ± 0.044; for L60G: 0.229 ± 0.11. The same measure, in the same setting: the same measure for L60V: -0.202 ± 0.065; for L60E: 0.031 ± 0.13. As to L60A, the abundance fitness was 0.036 ± 0.059. As for L60Y, the abundance fitness is -0.422 ± 0.17. The same measure, in the same setting: under L60H stands -0.293 ± 0.16; under L60K, 0.023 ± 0.047; under L60M, -0.194 ± 0.081. The same measure, in the same setting: the same measure for L60P: -0.404 ± 0.085; for L60C: -0.625 ± 0.088; for H58G: -0.203 ± 0.039. As for H58E, the abundance fitness is -0.062 ± 0.052. Same read-out and setting: under H58F stands -0.105 ± 0.057; under H58W, 0.022 ± 0.042. The same measure, in the same setting: the same measure for H58P: -0.667 ± 0.061. Same read-out and setting: the same measure for H58C: -0.365 ± 0.054. On to H58V, for which the abundance fitness is 0.037 ± 0.054. With H58L, the abundance fitness is -0.114 ± 0.038. The same measure, in the same setting: under H58R stands -0.147 ± 0.037; under H58T, -0.226 ± 0.052. As for H58A, the abundance fitness is -0.1 ± 0.043.

As for H58K, the abundance fitness is -0.091 ± 0.06. For H58Q, the abundance fitness is 0.065 ± 0.044. The same measure, in the same setting: under H58D stands -0.495 ± 0.08.

For the variant H58M, the abundance fitness was -0.109 ± 0.065. Still for that read-out and setting: the same measure for H58I: -0.157 ± 0.057; for H58N: -0.242 ± 0.063. Same read-out and setting: under H58S stands -0.179 ± 0.044.

The variants in a further data set derive from B2. The description is as above. The following applies: Homo sapiens.
On to G35N, for which the abundance fitness is 0.008 ± 0.065.

Take G35A: the abundance fitness was -0.016 ± 0.033. The same measure, in the same setting: the same measure for G35C: -0.113 ± 0.041. As for G35R, the abundance fitness amounted to 0.016 ± 0.028. With L66W, the abundance fitness was -0.148 ± 0.034. As to G24C, the abundance fitness was -0.575 ± 0.053. Regarding G24Y, the abundance fitness is -0.86 ± 0.12. In the case of P4S, the abundance fitness is -0.018 ± 0.039. Same read-out and setting: under P4W stands 0.091 ± 0.044; under K64Y, -0.019 ± 0.068; under D29V, -0.607 ± 0.044.

As for D29F, the abundance fitness is -0.649 ± 0.098. Still for that read-out and setting: the same measure for K62Y: -0.263 ± 0.07. On the same count and under the same terms, under K62A stands -0.033 ± 0.032; under E73C, 0.024 ± 0.12.

Consider N40G, for which the abundance fitness amounted to 0.035 ± 0.032.

For Q11H, the abundance fitness stood at 0.017 ± 0.073. For the variant Q11F, the abundance fitness was -0.062 ± 0.068. On the same count and under the same terms, the same measure for F12I: -0.66 ± 0.3. For the variant F12M, the abundance fitness is -0.223 ± 0.14. The same measure, in the same setting: under G39A stands -0.314 ± 0.033. The same measure, in the same setting: the same measure for L71R: -0.427 ± 0.077; for L71Y: -0.168 ± 0.17.

Take L32N: the abundance fitness came out at 0.091 ± 0.19. The same measure, in the same setting: under L32S stands -0.197 ± 0.14; under F16L, -0.477 ± 0.035. The same measure, in the same setting: the same measure for F16P: -0.733 ± 0.081; for W70R: -0.649 ± 0.039. For the variant W70T, the abundance fitness is -1.06 ± 0.18. Same read-out and setting: under W70K stands -0.814 ± 0.12; under F25Q, -0.431 ± 0.049; under E51D, -0.638 ± 0.12. For the variant E51L, the abundance fitness was -1.05 ± 0.14. Consider E51P, for which the abundance fitness was -0.795 ± 0.11. The same measure, in the same setting: under I21S stands -0.337 ± 0.04; under I21H, -0.267 ± 0.08; under Q18S, -0.018 ± 0.037. On the same count and under the same terms, the same measure for Q18K: 0.024 ± 0.062. C48A: the abundance fitness was 0.086 ± 0.03. Consider C48L, for which the abundance fitness was -0.152 ± 0.034. Same read-out and setting: the same measure for C61W: -0.158 ± 0.03; for C61F: -0.274 ± 0.053. On to C61T, for which the abundance fitness is -0.182 ± 0.045. For C61E, the abundance fitness is -0.147 ± 0.037. The same measure, in the same setting: the same measure for T26Y: -0.89 ± 0.23; for T26I: -0.635 ± 0.14. The same measure, in the same setting: the same measure for S43H: 0.007 ± 0.075; for S43E: -0.031 ± 0.039. On to Y38G, for which the abundance fitness was -0.074 ± 0.028.

Y38N: the abundance fitness is -0.043 ± 0.051.

With Y38C, the abundance fitness was -0.065 ± 0.05.

As for T45F, the abundance fitness is -0.104 ± 0.063. The same measure, in the same setting: under F42M stands -0.004 ± 0.047; under F42P, -0.368 ± 0.062. On to F42A, for which the abundance fitness was -0.012 ± 0.034.

In the case of F42R, the abundance fitness was -0.292 ± 0.032. Same read-out and setting: the same measure for F42I: -0.037 ± 0.085; for F42K: -0.148 ± 0.043.

In the case of L23Q, the abundance fitness was -0.31 ± 0.063.

As to L23I, the abundance fitness is -0.565 ± 0.12. On the same count and under the same terms, under E72C stands -0.042 ± 0.056; under E72S, -0.13 ± 0.038. Turning to V41G, the abundance fitness was determined as 0.021 ± 0.029. Regarding V41A, the abundance fitness worked out at 0.017 ± 0.039. With V41Y, the abundance fitness is -0.12 ± 0.092. On the same count and under the same terms, the same measure for G31N: -0.44 ± 0.1; for G31F: -0.39 ± 0.14; for K14S: -0.073 ± 0.051. Take K14C: the abundance fitness is -0.136 ± 0.11. S76H: the abundance fitness is 0.023 ± 0.064. The same measure, in the same setting: under S76T stands -0.019 ± 0.043; under S6T, 0.099 ± 0.038; under S6M, 0.148 ± 0.04. Same read-out and setting: the same measure for L34S: -0.955 ± 0.093; for L34A: -0.646 ± 0.068; for L34T: -0.742 ± 0.1. Regarding E10D, the abundance fitness is -0.259 ± 0.057. On to E10V, for which the abundance fitness turned out to be 0.038 ± 0.028. The same measure, in the same setting: the same measure for E10A: 0.006 ± 0.033. On the same count and under the same terms, the same measure for Q54D: -0.035 ± 0.063; for Q54F: -0.933 ± 0.37; for L55F: -0.277 ± 0.063. Turning to L55C, the abundance fitness was -0.318 ± 0.045. L55G: the abundance fitness is -0.61 ± 0.031. Still for that read-out and setting: under K58A stands -0.042 ± 0.036; under K58H, -0.486 ± 0.26. Still for that read-out and setting: under K58R stands -0.058 ± 0.031; under K58G, -0.033 ± 0.029; under K58V, -0.113 ± 0.039. The same measure, in the same setting: the same measure for R49K: 0.05 ± 0.045. As for R49M, the abundance fitness was -0.125 ± 0.042. Still for that read-out and setting: the same measure for R49V: -0.868 ± 0.073; for D75I: -0.089 ± 0.092; for D75C: -0.161 ± 0.049. D75R: the abundance fitness was -0.058 ± 0.028. The same measure, in the same setting: under D75M stands -0.022 ± 0.037; under E1A, -0.108 ± 0.058. Same read-out and setting: the same measure for E1W: -0.191 ± 0.084; for V30A: -0.23 ± 0.046. On the same count and under the same terms, under V30G stands -0.776 ± 0.089; under V30T, -0.501 ± 0.083. As to I47T, the abundance fitness is -0.636 ± 0.083. Same read-out and setting: the same measure for K69D: -0.264 ± 0.14; for K69F: -0.234 ± 0.14.

For K69R, the abundance fitness turned out to be 0.019 ± 0.056.

With R19I, the abundance fitness was -0.196 ± 0.073. Still for that read-out and setting: under R19S stands -0.187 ± 0.039; under T46L, -0.103 ± 0.032. The same measure, in the same setting: under K22F stands -0.096 ± 0.064; under K22S, -0.131 ± 0.041; under P65C, 0.038 ± 0.2.

Regarding P65Y, the abundance fitness was found to be 0.137 ± 0.23.

With S77I, the abundance fitness is -0.031 ± 0.077.

In the case of S77M, the abundance fitness is -0.17 ± 0.078. Take F50Y: the abundance fitness is -0.412 ± 0.1. The same measure, in the same setting: the same measure for A13I: -0.12 ± 0.061; for T5P: -0.138 ± 0.042.

T5M: the abundance fitness was -0.056 ± 0.044. In the case of L53F, the abundance fitness is -0.09 ± 0.061. Turning to R20G, the abundance fitness was -0.938 ± 0.065. The same measure, in the same setting: under F57C stands -0.516 ± 0.068; under A52R, -0.181 ± 0.029. A52C: the abundance fitness was -0.137 ± 0.065. As to Q15A, the abundance fitness was -0.124 ± 0.034. Consider A74C, for which the abundance fitness came out at 0.034 ± 0.046.

A74P: the abundance fitness is -0.274 ± 0.068. On to A33Y, for which the abundance fitness was -0.314 ± 0.087.

In the case of A33W, the abundance fitness is -0.021 ± 0.036. The same measure, in the same setting: under A33S stands -0.091 ± 0.039; under M60Q, -0.546 ± 0.095; under M60H, -0.367 ± 0.17. For T36Q, the abundance fitness is -0.038 ± 0.045. Take Q44T: the abundance fitness was -0.018 ± 0.039.
